{"source": "patent US20210205365A1", "about": "“Chimeric Growth Factor Receptors” (Instil Bio (UK) Ltd., priority 2018, published 2021)", "key": {"primary human T-cells": {"tested_on": "primary human T-cells", "assay": "Eltrombopag and IL-2 on CrGFR sorted (CD110+) primary human T-cells, up to 7 days", "format": "cell-based", "conditions": "second donor (FIG. 12)", "method": "(§1) FIG. 10—Analysis of Eltrombopag and IL-2 on CrGFR sorted primary human T-cells from Donor 4. Primary human T-cells from donor 4 were transduced with the WT TpoR or variant CrGFR, and enriched for expression by Miltenyi MACS technology selected for and incubated in the presence of IL2 or Eltrombopag. Cells were removed at time points up to 7 days and the number of cells expressing the receptor assessed using PE conjugated anti-CD110 antibodies, DRAQ7 viability dye and a MACSQuant analyser.\nas §1, with “11—Analysis” for “10—Analysis”, “5.” for “4.”, “5” for “4”\nas §1, with “12—Analysis” for “10—Analysis”, “6.” for “4.”, “6” for “4”\nParamagnetic bead sorts were conducted as per the manufacturers' instructions using either anti-PE microbeads (Miltenyi Biotec or StemCell Technologies), or T-cell isolation beads (17951: StemCell Technologies).\nNext Applicants repeated the experiment but sorted the CrGFR+ cells using CD110+ selection by paramagnetic bead selection using the receptors identified from the first round of selections (FIGS. 10, 11 and 12). Applicants observed enhanced survival of T-cells engrafted with the majority of the CrGFR in all three donors. In particular Applicants saw expansion of WT-TpoR, TpOR.CD40, TpOR.IL2rγ and TpoR.LMP1-cyto cells in the second donor (FIG. 12) above that with media alone."}, "T-cells": {"tested_on": "T-cells", "conditions": "via administration of Tpo or Eltrombopag; cited from earlier work"}, "[1]": {"assay": "Previous attempts to modify TpoR (surface expression, activity)", "format": "cell-based", "conditions": "previously validated", "source_text": "However attempts to modify the receptor were not always straightforward. […] Furthermore, Applicants felt that they could improve the signalling capacity of TpoR-based receptors in T-cells by including signalling components which activate JAK3, a signalling molecule involved in IL-2 signalling but not in TpoR signalling, and therefore more likely to drive IL-2 like signals in engineered cells.\nApplicants therefore aimed to generate fusion receptors wherein additional domains were fused directly to the C-terminus of the TpoR IC domain. Applicants first generated a fusion between TpoR and the IL2rβ signalling domain. […] Applicants therefore took an alternative approach where a hybrid TpoR-IL2rβ signalling domain was created whereby the I2rβ signalling region was fused N- or C-terminal to TpoR signalling domain. Next Applicants generated receptors where the cytoplasmic domain of TIAF1, TLR1, CD150, IL2rγ, CD40, LMP1 and ITAM1 from CD3ζ were fused C-terminal to the TpoR signalling domain. […] Applicants also generated CrGFR consisting of TpoR extracellular and transmembrane domain fused to the cytoplasmic domain of CD28 and CD137 as Applicants felt these would provide a costimulatory growth signal upon Eltrombopag administration, sequences of these constructs are provided below."}}}
{"molecule": "WT TpoR: Wild type TpoR, SEQ ID NO: 1, 635 amino acids (protein, listed as Homo sapiens, MISC_FEATURE (1)..(491): TpoR Extracellular Domain; MISC_FEATURE (492)..(513): TpoR Transmembrane Domain; MISC_FEATURE (514)..(635): TpoR Cytoplasmic Domain) MPSWALFMVTSCLLLAPQNLAQVSSQDVSLLASDSEPLKCFSRTFEDLTCFWDEEEAAPSGTYQLLYAYPREKPRACPLSSQSMPHFGTRYVCQFPDQEEVRLFFPLHLWVKNVFLNQTRTQRVLFVDSVGLPAPPSIIKAMGGSQPGELQISWEEPAPEISDFLRYELRYGPRDPKNSTGPTVIQLIATETCCPALQRPHSASALDQSPCAQPTMPWQDGPKQTSPSREASALTAEGGSCLISGLQPGNSYWLQLRSEPDGISLGGSWGSWSLPVTVDLPGDAVALGLQCFTLDLKNVTCQWQQQDHASSQGFFYHSRARCCPRDRYPIWENCEEEEKTNPGLQTPQFSRCHFKSRNDSIIHILVEVTTAPGTVHSYLGSPFWIHQAVRLPTPNLHWREISSGHLELEWQHPSSWAAQETCYQLRYTGEGHQDWKVLEPPLGARGGTLELRPRSRYRLQLRARLNGPTYQGPWSSWSDPTRVETATETAWISLVTALHLVLGLSAVLGLLLLRWQFPAHYRRLRHALWPSLPDLHRVLGQYLRDTAALSPPKATVSDTCEEVEPSLLEILPKSSERTPLPLCSSQAQMDYRRLQPSCLGTMPLSVCPPMAESGSCCTTHIANHSYLPLSYWQQP", "values": [{"measurement": "expansion of CrGFR cells above that with media alone", "setting": "primary human T-cells", "result": "expansion"}, {"measurement": "survival and expansion of engineered T-cells", "setting": "T-cells", "result": "could permit controlled survival and expansion of T-cells"}, {"measurement": "activity in primary human T-cells", "setting": "[1]", "result": "can have activity"}]}
